This data set deals with the molecule itself. The data set can be described thus: crystal structure; hanging-drop vapour diffusion, 0.1 M MES pH 6.43, 4% PEG20000, 10% PEG8000, potassium sodium tartrate, 277 K; four monomers in each asymmetric unit.

B1: D-2-haloacid dehalogenase HadD AJ1 from Pseudomonas putida AJ1/23, wild type (enzyme)
chain: MNLPDNSIHLQLPRPVCEAIIRPVPEHRADQELSEIYRDLKATFGVPWVGVITQAVAYYRPFFAEAWRRFAPSAKTHFFERASDDIRIRSWELMGQSFVIEGQTDRLREMGYSVREIGQIRAVLDIFDYGNPKYLIFATAIKEGLLSGRTFGGAAGDARCHFPRSPICQIDPIPVMVEEHHAGGTLSQVYADIKQTLQLPFINSDYKAMARWPSYLEQAWGALKPCIDTPAYQAGRFDINARALAALDALPTAYRMSRDDALQAGLSEAQTDELIQVISLFQWMLSGLVLNVTHFKQQALK
notes: D-2-haloacid dehalogenase HadD AJ1, Pseudomonas putida strain AJ1/23; the 909 bp hadd aj1 gene (ENA AAA25831.1) subcloned into pET-28a between NcoI and XhoI; Homotetramer in the crystal; it gives no residue limits; also called WT; D-DEX
As for B1, the “stoichiometry N” value was 4.

(Values after PMC5780510, “Insights into the molecular mechanism of dehalogenation catalyzed by D-2-haloacid dehalogenase from crystal structures” (Scientific Reports, 2018).)
